For test [1], the target named is T1, recombinant soluble murine C4.4a (mouse, UniProt Q91YK8 33-343, limits assumed).
T1 construct: also called mouse C4.4a; mC4.4a
T1 sequence (looked up): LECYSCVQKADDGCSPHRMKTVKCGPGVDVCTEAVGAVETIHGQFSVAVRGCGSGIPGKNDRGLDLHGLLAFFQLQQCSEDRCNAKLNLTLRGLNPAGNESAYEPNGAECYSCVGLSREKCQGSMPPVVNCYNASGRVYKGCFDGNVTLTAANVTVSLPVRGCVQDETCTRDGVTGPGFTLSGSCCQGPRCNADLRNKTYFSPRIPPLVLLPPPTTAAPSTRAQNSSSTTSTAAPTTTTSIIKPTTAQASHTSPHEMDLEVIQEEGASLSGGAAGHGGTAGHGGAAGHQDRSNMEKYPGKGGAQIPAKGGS
The test can be described thus: direct ELISA, Fab supernatant on coated mouse C4.4a, signal normalized to Fab quantity. The procedure:
(§1) Cultures were diluted in 10% Smart Block in PBST and bound to the MTP plates for 1 h at 20° C. After washing with PBST, captured antibodies were incubated with a HRP-coupled anti-lambda antibody (Sigma, A5175) and detected by incubating the plate with 10 μM amplex red substrate (Invitrogen, A12222) for 30 minutes at 20° C. in the dark followed by fluorescence measurement. Determined quantification signals were checked to be in the dynamic range of an calibration series built up with concentrated parental Fab (M31-B01 or M20-D02-S-A) expression culture supernatant allowing a relative quantification of each individual Fab expression sample.
(§2) To determine the activity of the mutated Fab variants on recombinant soluble human or mouse C4.4a a direct ELISA assay format was used. Briefly, MTP plates (Nunc maxisorp black, 460518) were coated with 2 μg/ml either human or mouse C4.4a diluted in coating buffer (Candor Bioscience GmbH, 121125) and incubated for 15 h at 4° C. After washing 3 times with PBST, plates were blocked with 100% Smart Block (Candor Bioscience GmbH, 113500) for 1 h at 20° C. and the washing steps were repeated. For binding of the Fab antibody fragments 20 μl of culturing supernatants were added to the plates for 1 h at 20° C. followed by washing. In some cases the washing stringency was increased by an additional incubation step with 10% Smart Block in PBST for 90 min followed by washing 3 times with PBST (“process B” in Table 10b). Bound parental Fabs and variants were then detected by a HA-epitope tag specific antibody HRP conjugate (Bethyl, A190-108P). 10 μM amplex red substrate (Invitrogen, A12222) was added to the plates and the fluorescence signal was detected using a common fluorescence reader, e.g. Tecan Ultra. Quantity normalized affinity signals were calculated as ratios of background corrected affinity and quantification signals in the respective ELISA: (Signalaffinity−Backgroundaffinity)/(Signalquantity−Backgroundquantity). The resulting values correlate mainly with the affinity in a positive manner, whereas not normalized values correlate additionally with the concentration of the binding Fab in the sample.
For orientation: ELISA stands for enzyme-linked immunosorbent assay.

In test [2] the target is T2, recombinant soluble human C4.4a (human, UniProt O95274 31-308).
T2 construct: recombinant, soluble, purified protein; also called hC4.4a; full length C4.4a
T2 sequence: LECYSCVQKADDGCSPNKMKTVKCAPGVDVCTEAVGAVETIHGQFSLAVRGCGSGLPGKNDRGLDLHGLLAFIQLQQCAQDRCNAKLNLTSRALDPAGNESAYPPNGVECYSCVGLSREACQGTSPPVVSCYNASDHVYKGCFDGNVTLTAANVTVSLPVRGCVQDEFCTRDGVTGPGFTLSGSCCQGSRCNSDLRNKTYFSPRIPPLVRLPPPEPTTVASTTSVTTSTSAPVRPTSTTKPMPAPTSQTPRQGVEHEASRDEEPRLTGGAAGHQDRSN
In words: direct ELISA, Fab supernatant on coated human C4.4a, signal normalized to Fab quantity. How it is done: as §1, §2

Consider 14 molecules from patent publication US20120321619A1 (Bayer, published 2012).

B1: wild-type Fab M31-B01 (Fab, V domains shown)
VH: EVQLLESGGGLVQPGGSLRLSCAASGFTFSNAWMSWVRQAPGKGLEWVSYISSSGSTIYYADSVKGRFTISRDNSKNTLYLQMNSLRAEDTAVYYCAREGLWAFDYWGQGTLVTVTS
VL: QSVLTQPPSASGTPGQRVTISCTGSSSNIGAGYVVHWYQQLPGTAPKLLIYDNNKRPSGVPDRFSGSKSGTSASLAISGLRSEDEADYYCAAWDDRLNGPVFGGGTKLTVLG
notes: Fab with 3×HA-tag and hexa-histidine tag at the C-terminus of the heavy chain, E. coli culture supernatant; also called M31-B01 (parental Fab)
For B1, in test [1], the “normalized affinity signal (average)” value was determined as 0.13 and the “normalized affinity signal (median)” value stood at 0.16. For the same molecule, in test [2], the “normalized affinity signal (average)” value came out at 1.11 and the “normalized affinity signal (median)” value was determined as 1.23.

B2: M31-B01 Fab HC Y102W (Fab, V domains shown)
VH: EVQLLESGGGLVQPGGSLRLSCAASGFTFSNAWMSWVRQAPGKGLEWVSYISSSGSTIYYADSVKGRFTISRDNSKNTLYLQMNSLRAEDTAVYYCAREGLWAFDWWGQGTLVTVTS
VL: QSVLTQPPSASGTPGQRVTISCTGSSSNIGAGYVVHWYQQLPGTAPKLLIYDNNKRPSGVPDRFSGSKSGTSASLAISGLRSEDEADYYCAAWDDRLNGPVFGGGTKLTVLG
notes: Fab with 3×HA-tag and hexa-histidine tag at the C-terminus of the heavy chain, culture supernatant
Take B2: the results for the “normalized affinity signal (average)” value in test [1] and in test [2] were 0.13 and 1.65, respectively.

B3: M31-B01 Fab LC T24S (Fab, V domains shown)
VH: EVQLLESGGGLVQPGGSLRLSCAASGFTFSNAWMSWVRQAPGKGLEWVSYISSSGSTIYYADSVKGRFTISRDNSKNTLYLQMNSLRAEDTAVYYCAREGLWAFDYWGQGTLVTVTS
VL: QSVLTQPPSASGTPGQRVTISCSGSSSNIGAGYVVHWYQQLPGTAPKLLIYDNNKRPSGVPDRFSGSKSGTSASLAISGLRSEDEADYYCAAWDDRLNGPVFGGGTKLTVLG
notes: as for B2
For the molecule B3, the “normalized affinity signal (median)” value in test [1] turned out to be 0.23; in test [2], 0.77.

B4: M31-B01 Fab HC Y102K (Fab, V domains shown)
VH: EVQLLESGGGLVQPGGSLRLSCAASGFTFSNAWMSWVRQAPGKGLEWVSYISSSGSTIYYADSVKGRFTISRDNSKNTLYLQMNSLRAEDTAVYYCAREGLWAFDKWGQGTLVTVTS
VL: QSVLTQPPSASGTPGQRVTISCTGSSSNIGAGYVVHWYQQLPGTAPKLLIYDNNKRPSGVPDRFSGSKSGTSASLAISGLRSEDEADYYCAAWDDRLNGPVFGGGTKLTVLG
notes: as for B2
As to B4, the “normalized affinity signal (average)” value in test [1] was determined as 0.21; in test [2], 1.49.

B5: M31-B01 Fab LC R94M (Fab, V domains shown)
VH: EVQLLESGGGLVQPGGSLRLSCAASGFTFSNAWMSWVRQAPGKGLEWVSYISSSGSTIYYADSVKGRFTISRDNSKNTLYLQMNSLRAEDTAVYYCAREGLWAFDYWGQGTLVTVTS
VL: QSVLTQPPSASGTPGQRVTISCTGSSSNIGAGYVVHWYQQLPGTAPKLLIYDNNKRPSGVPDRFSGSKSGTSASLAISGLRSEDEADYYCAAWDDMLNGPVFGGGTKLTVLG
notes: as for B2
Consider B5, for which the “normalized affinity signal (average)” value worked out at 0.13 in test [1] and 1.3 in test [2].

B6: M31-B01 Fab HC N31S (Fab, V domains shown)
VH: EVQLLESGGGLVQPGGSLRLSCAASGFTFSSAWMSWVRQAPGKGLEWVSYISSSGSTIYYADSVKGRFTISRDNSKNTLYLQMNSLRAEDTAVYYCAREGLWAFDYWGQGTLVTVTS
VL: QSVLTQPPSASGTPGQRVTISCTGSSSNIGAGYVVHWYQQLPGTAPKLLIYDNNKRPSGVPDRFSGSKSGTSASLAISGLRSEDEADYYCAAWDDRLNGPVFGGGTKLTVLG
notes: as for B2
For the molecule B6, the results for the “normalized affinity signal (median)” value in test [1] and in test [2] were 0.32 and 1.53, respectively.

B7: M31-B01 Fab LC G95bR (Fab, V domains shown)
VH: EVQLLESGGGLVQPGGSLRLSCAASGFTFSNAWMSWVRQAPGKGLEWVSYISSSGSTIYYADSVKGRFTISRDNSKNTLYLQMNSLRAEDTAVYYCAREGLWAFDYWGQGTLVTVTS
VL: QSVLTQPPSASGTPGQRVTISCTGSSSNIGAGYVVHWYQQLPGTAPKLLIYDNNKRPSGVPDRFSGSKSGTSASLAISGLRSEDEADYYCAAWDDRLNRPVFGGGTKLTVLG
notes: as for B2
For the molecule B7, the entries for the “normalized affinity signal (average)” value in test [1] and in test [2] were 1.01 and 2.45, respectively.

B8: M31-B01 Fab LC P96A (Fab, V domains shown)
VH: EVQLLESGGGLVQPGGSLRLSCAASGFTFSNAWMSWVRQAPGKGLEWVSYISSSGSTIYYADSVKGRFTISRDNSKNTLYLQMNSLRAEDTAVYYCAREGLWAFDYWGQGTLVTVTS
VL: QSVLTQPPSASGTPGQRVTISCTGSSSNIGAGYVVHWYQQLPGTAPKLLIYDNNKRPSGVPDRFSGSKSGTSASLAISGLRSEDEADYYCAAWDDRLNGAVFGGGTKLTVLG
notes: as for B2
With B8, the figures for the “normalized affinity signal (average)” value in test [1] and in test [2] were 0.32 and 0.95, respectively.

B9: M31-B01 Fab HC T56S (Fab, V domains shown)
VH: EVQLLESGGGLVQPGGSLRLSCAASGFTFSNAWMSWVRQAPGKGLEWVSYISSSGSSIYYADSVKGRFTISRDNSKNTLYLQMNSLRAEDTAVYYCAREGLWAFDYWGQGTLVTVTS
VL: QSVLTQPPSASGTPGQRVTISCTGSSSNIGAGYVVHWYQQLPGTAPKLLIYDNNKRPSGVPDRFSGSKSGTSASLAISGLRSEDEADYYCAAWDDRLNGPVFGGGTKLTVLG
notes: as for B2
Turning to B9, the “normalized affinity signal (median)” value in test [1] turned out to be 0.74; in test [2], 1.58.

B10: M31-B01 Fab LC K53Q (Fab, V domains shown)
VH: EVQLLESGGGLVQPGGSLRLSCAASGFTFSNAWMSWVRQAPGKGLEWVSYISSSGSTIYYADSVKGRFTISRDNSKNTLYLQMNSLRAEDTAVYYCAREGLWAFDYWGQGTLVTVTS
VL: QSVLTQPPSASGTPGQRVTISCTGSSSNIGAGYVVHWYQQLPGTAPKLLIYDNNQRPSGVPDRFSGSKSGTSASLAISGLRSEDEADYYCAAWDDRLNGPVFGGGTKLTVLG
notes: as for B2
For B10, the “normalized affinity signal (median)” value in test [1] was found to be 0.35; in test [2] it was 1.12.

B11: M31-B01 Fab HC I57T (Fab, V domains shown)
VH: EVQLLESGGGLVQPGGSLRLSCAASGFTFSNAWMSWVRQAPGKGLEWVSYISSSGSTTYYADSVKGRFTISRDNSKNTLYLQMNSLRAEDTAVYYCAREGLWAFDYWGQGTLVTVTS
VL: QSVLTQPPSASGTPGQRVTISCTGSSSNIGAGYVVHWYQQLPGTAPKLLIYDNNKRPSGVPDRFSGSKSGTSASLAISGLRSEDEADYYCAAWDDRLNGPVFGGGTKLTVLG
notes: as for B2
Take B11: the “normalized affinity signal (median)” value amounted to 0.73 in test [1] and 1.5 in test [2].

B12: M31-B01 Fab HC A32Y (Fab, V domains shown)
VH: EVQLLESGGGLVQPGGSLRLSCAASGFTFSNYWMSWVRQAPGKGLEWVSYISSSGSTIYYADSVKGRFTISRDNSKNTLYLQMNSLRAEDTAVYYCAREGLWAFDYWGQGTLVTVTS
VL: QSVLTQPPSASGTPGQRVTISCTGSSSNIGAGYVVHWYQQLPGTAPKLLIYDNNKRPSGVPDRFSGSKSGTSASLAISGLRSEDEADYYCAAWDDRLNGPVFGGGTKLTVLG
notes: as for B2
As to B12, the “normalized affinity signal (median)” value in test [1] came to 0.01; in test [2] it was 2.31.

B13: M31-B01 Fab LC N95aK (Fab, V domains shown)
VH: EVQLLESGGGLVQPGGSLRLSCAASGFTFSNAWMSWVRQAPGKGLEWVSYISSSGSTIYYADSVKGRFTISRDNSKNTLYLQMNSLRAEDTAVYYCAREGLWAFDYWGQGTLVTVTS
VL: QSVLTQPPSASGTPGQRVTISCTGSSSNIGAGYVVHWYQQLPGTAPKLLIYDNNKRPSGVPDRFSGSKSGTSASLAISGLRSEDEADYYCAAWDDRLKGPVFGGGTKLTVLG
notes: as for B2
For the molecule B13, the “normalized affinity signal (average)” value in test [1] came out at 0.12; in test [2] it was 1.11.

B14: M20-D02 S-A Fab LC N95aW (Fab, V domains shown)
VH: EVQLLESGGGLVQPGGSLRLSCAASGFTFSDYQMTWIRQTPGKGLEWVSGVSWNGARTHYADSVKGRFTISRDNSKNTLYLQMNSLRAEDTAVYYCAKGDYLVYSAYYFDSWGQGTLVTVTS
VL: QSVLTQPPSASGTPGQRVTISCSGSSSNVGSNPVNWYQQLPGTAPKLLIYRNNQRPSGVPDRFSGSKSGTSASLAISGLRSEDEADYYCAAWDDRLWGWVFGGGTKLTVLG
notes: as for B2
In the case of B14, in test [2], the “normalized affinity signal (average)” value was determined as 0.11.
